Data: article PMC11598966

Experiments:
[1] = molecular target: Rhinovirus C15 (RV-C15) virus particles (rhinovirus C15); experiment: ELISA
[2] = molecular target: Rhinovirus C15 (RV-C15) virus particles (rhinovirus C15); experiment: ELISA; RV-C15 coated on the plate; native SP-A or recombinant SP-A variants at a single concentration of 10 µg/mL, with 5 mM CaCl2; A490 nm
[3] = molecular target: Rhinovirus C15 (RV-C15) virus particles (rhinovirus C15)

Substance	A490nm at 10 µg/mL [1] [A490nm]	A490nm at 10 µg/mL [2] [A490nm]	RV-C15-GFP viral copy numbers in NECs at 48 h with rSP-A2 [A91, K223] at 400 µg/mL, percent of RV-C15-GFP infection control (% of RV-C15-GFP infection control) [3]	RV-C15-GFP viral copy numbers in NECs at 48 h with rSP-A2 [A91, Q223] at 400 µg/mL, percent of RV-C15-GFP infection control (% of RV-C15-GFP infection control) [3]
Native surfactant protein A (SP-A) (from UniProt Q8IWL2 21-248; Q8IWL1 21-248) (complex)	2.01	–	–	–
Recombinant SP-A2 [A91, K223] (from UniProt Q8IWL1 21-248) (natural protein)	–	1.19	40.2	–
Recombinant SP-A2 [A91, Q223] (from UniProt Q8IWL1 21-248) (natural protein)	–	0.19	–	54.8
Recombinant SP-A2 [P91, K223] (from UniProt Q8IWL1 21-248) (natural protein)	–	1.67	–	–
Recombinant SP-A2 [P91, Q223] (from UniProt Q8IWL1 21-248) (natural protein)	1.61	–	–	–
